US20180095098A1

Biological target: Human β2-adrenergic receptor, amino-terminal FLAG epitope tag, truncated after residue 365, biotinylated, bound to the agonist BI-167107 (human) (UniProt P07550)
Test: SPR (Biacore T100, 25 °C), biotinylated BI-167107-bound receptor on SA chip, single-cycle kinetics

In the case of “Nb6B9, high affinity variant of Nb80 (VHH)”, the fold slowing of dissociation against wild-type Nb80 is reported as > 10 fold.
